Data: PMC5640805

Legend:
[1] = biological target: C108 SOSIP.664 trimer (HIV-1 (isolate C108.c03)); assay: negative-stain EM; PGT145-purified SOSIPs; class averages
[2] = biological target: C108 SOSIP.664 trimer (HIV-1 (isolate C108.c03)); assay: SEC; PGT145-affinity-purified SOSIPs on a Superdex 200 10-300 GL column in PBS
[3] = biological target: CRF250 SOSIP.664 trimer (HIV-1 (isolate CRF-T250-4)); assay: negative-stain EM; PGT145-purified SOSIPs; class averages
[4] = biological target: CRF250 SOSIP.664 trimer (HIV-1 (isolate CRF-T250-4)); assay: SEC; PGT145-affinity-purified SOSIPs on a Superdex 200 10-300 GL column in PBS
[5] = biological target: MGRM8 SOSIP.664 trimer (HIV-1 (isolate MGRM_AG_002_8)); assay: negative-stain EM; PGT145-purified SOSIPs; class averages
[6] = biological target: MGRM8 SOSIP.664 trimer (HIV-1 (isolate MGRM_AG_002_8)); assay: SEC; PGT145-affinity-purified SOSIPs on a Superdex 200 10-300 GL column in PBS
[7] = biological target: WITO SOSIP.664 trimer (HIV-1 (isolate WITO4160.33)); assay: negative-stain EM; PGT145-purified SOSIPs; class averages
[8] = biological target: WITO SOSIP.664 trimer (HIV-1 (isolate WITO4160.33)); assay: SEC; PGT145-affinity-purified SOSIPs on a Superdex 200 10-300 GL column in PBS

## C108 SOSIP.664 trimer (complex)
[1]
  stoichiometry N: 3
[2]
  stoichiometry N: 3

## CRF250 SOSIP.664 trimer (complex)
[3]
  stoichiometry N: 3
[4]
  stoichiometry N: 3

## MGRM8 SOSIP.664 trimer (complex)
[5]
  stoichiometry N: 3
[6]
  stoichiometry N: 3

## WITO SOSIP.664 trimer (complex)
[7]
  stoichiometry N: 3
[8]
  stoichiometry N: 3
